We go through 134 substances from the supplement of paper PMC12042874.

± gives the uncertainty stated by the source.

The data set in a line: amyloid nucleation score (Sup35N fusion, yeast selection) (log enrichment); library NNK3; higher = more nucleation; inactive = no reads after selection. The gist of the method: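 Libraries of peptides of 20 random codons fused to Sup35N were expressed in psi-negative yeast and induced 24 hours with 100 μM copper sulfate. Selection was 7 days at 30°C on medium lacking adenine and uracil, and plasmid inserts were Illumina-sequenced before and after selection. Nucleation score is the DiMSum log enrichment of output over input reads, centred on the mode score of non-aggregating sequences, and sequences with under 100 input reads were left out.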
For the substance MRRYIRNIKAHMCVIVRVYL, the amyloid nucleation score entry was “inactive”. As for MRSLGSAMWR, the entry is “inactive”.

Turning to MRSYFEDFCGFQAIRS, the amyloid nucleation score was determined as 1.07 ± 0.14. On to MRTINIS, for which the amyloid nucleation score result is “inactive”. With MRVLGLGEAWDDNGLRRLRA, the amyloid nucleation score entry is “inactive”. For MRWMGDGMRSTNSSVNSHGL the value was “inactive”; for MSAGCLLNL, “inactive”; for MSCLG, “inactive”. For MSFRIAKDIMCLVGFSLRCT the value was “inactive”; for MSFSPQKVVAHFCYWSCMRS, “inactive”; for MSHCYYEFARVPKWHERCPS, “inactive”. As for MSILMMSL, the entry is “inactive”. On to MSIVIYARLTWNYDSVFSFG, for which the amyloid nucleation score result was “inactive”. As for MSIYLQSTM, the amyloid nucleation score entry was “inactive”. As for MSKDFSRGVQLTDRCLLC, the entry is “inactive”. For MSKHRMFLSGRLFRANEVRP the value was “inactive”; for MSLRSSRHTPVDSQISSMEM, “inactive”; for MSMLKFIYFDYSMDSLHIIW, “inactive”. For MSPFADKRHLADILCVHGS the value was “inactive”. Take MSQCFVCRFAFLIN: the amyloid nucleation score was found to be 1.57 ± 0.067. In the case of MSQKEGFSDTGLLLRRSTRS, the amyloid nucleation score entry was “inactive”. Regarding MSSISIKGKIYDWMFRFCCR, the amyloid nucleation score entry was “inactive”. For MSTMVYRASRCGRLG the value was 0.399 ± 0.53; for MSVIIAIAMYRLFRDRTHPL, “inactive”; for MTGCHCSSVAR, -0.299 ± 0.68. As for MTLFDWFFLEIKAGWFRMVV, the entry is “inactive”; as for MTMQKSSIFFLHEAKLNFSA, “inactive”; as for MTPFIKNS, “inactive”. On to MTRKYQNR, for which the amyloid nucleation score entry is “inactive”. In turn, MVCEKERTWVTSRHWLERYR yielded an amyloid nucleation score of -0.203 ± 1.3. As for MVGVGSKLGLLAATEVWNEI, the entry is “inactive”. As for MVLLI, the figure is -0.031 ± 1; as for MVRNRNYSLIYGWVPIQDEE, 1.82 ± 0.099; as for MVSGH, “inactive”.

In the case of MVVIIFDWIPHLFNLYMYVI, the amyloid nucleation score result is “inactive”. Turning to MVVMRKSVETTYYWLILAIF, the amyloid nucleation score entry is “inactive”. For MVVQRNDYIVSVFSTLFPRS the value was 1.6 ± 0.096; for MWLSTVDRHHINSQALENVD, “inactive”; for MWLVFLTKQNYNNKVQTG, “inactive”. As for MYCSTYTVFYYAGIRVLCGD, the figure is 1.28 ± 0.14; as for MYFMGLFFMTGVGFSMKEVE, “inactive”. Take MYLDIESDMSNTGAE: the amyloid nucleation score result is “inactive”. As for MYMIWSWCVQMLVNLNHAMA, the entry is “inactive”; as for MYSHLNTCTTAKPQVFCSKL, “inactive”; as for MYTMSHSGLVLALFDAGSWR, “inactive”. As for NACTF, the entry is “inactive”.

On to NAMCR, for which the amyloid nucleation score result was “inactive”. As to NAQWLYCINSD, the amyloid nucleation score entry was “inactive”.

With NASLI, the amyloid nucleation score result is “inactive”. For NAVLEFTPMFMFRTLSGRRV the value was “inactive”. NAYSKNVFQHVGMHTWSWYL: the amyloid nucleation score entry is “inactive”. As for NAYSSLQWREIVSHIYQSCQ, the entry is “inactive”. As for NCCNPCFVNLQSR, the figure is 2.66 ± 0.066; as for NCGNAPFGFVRP, “inactive”.

NCIAWYQW yielded an amyloid nucleation score of -0.393 ± 0.7.

Take NCINVYGNTNLLRGPVGTSG: the amyloid nucleation score entry was “inactive”.

With NCLLTFDQNYTRGIPAKI, the amyloid nucleation score entry was “inactive”.

Consider NCMYSLSMQREPFYPSRGVD, for which the amyloid nucleation score entry is “inactive”.

Take NCNTVKYGMFGAWSNSAV: the amyloid nucleation score amounted to 0.313 ± 0.18. As for NCQLLKLDSGSLSLCRWVHS, the entry is “inactive”; as for NCRFEGLDKSTS, “inactive”; as for NDCRCTIFAAYIKILYKFLG, 1.13 ± 0.097. As for NDFIVECMTVESS, the entry is “inactive”; as for NDGFQYRGHRWCLYNHL, “inactive”. In the case of NDQAYMFYIGVYTTLCIGLK, the amyloid nucleation score result was “inactive”. As for NDRVIRVGVN, the entry is “inactive”; as for NDSGAPPLPSGLQPLHH, “inactive”; as for NDTFNAK, “inactive”. With NDVKFGSGR, the amyloid nucleation score result is “inactive”. For NEHSYLSGSWYPRSHLIYYC the value was “inactive”; for NEICEHTSVVLLR, “inactive”; for NEQVGDGLFCP, -0.057 ± 0.75.

Take NFFVTFICAFEEAYMTKQLR: the amyloid nucleation score is 2 ± 0.082.

On to NFGLFREVGLFIRLWIANAA, for which the amyloid nucleation score result is “inactive”. In turn, NFGVMLGVNTLSMSSRVVLG returned an amyloid nucleation score of 0.6 ± 0.26.

As for NFKNMEWFLST, the amyloid nucleation score entry was “inactive”. The substance NFLWYCV returned an amyloid nucleation score of 1.75 ± 0.089. For NFPNPVVSNLRAYFMD the value was -0.371 ± 0.96.

Take NFPYLAVFLRGFSFSVIDC: the amyloid nucleation score result was “inactive”.

For the substance NFRNRMRVLFSCS, the amyloid nucleation score result was “inactive”. For NGFCCM the value was “inactive”; for NGFIILADCQMVCLRTSDLM, 1.77 ± 0.065.

Regarding NGFVI, the amyloid nucleation score entry is “inactive”. As for NGILKPETVRQI, the entry is “inactive”.

On to NGINNCSEIKHVCTGLANPV, for which the amyloid nucleation score result is “inactive”. For NGLLNRQSTSWWSTLNYCGD the value was “inactive”; for NGLPARRV, “inactive”; for NGMAFGSRVNRLGGCSEVEV, “inactive”. As for NGTNPSYNKNCFSVFVESFN, the entry is “inactive”; as for NGWNVMYLFMCRVNSARSIL, 1.77 ± 0.081. For NHLGM the value was “inactive”; for NHLLFSIPRSIRWKACVQ, “inactive”. Take NHYLT: the amyloid nucleation score entry was “inactive”. For NIFDFVFDEFRLAQPMYKCC the value was “inactive”. For NIFSQWYIISCLFRGKLCEH the value was 1 ± 0.13; for NIFWP, “inactive”; for NIGRNMLRCVNLTT, “inactive”. As for NIGWV, the figure is -0.568 ± 1.3; as for NILFWSF, “inactive”; as for NILGLKCPSYYPQHVSCGYY, “inactive”.

Take NILMAGDMHSRA: the amyloid nucleation score result is “inactive”. For NKCSVMCHLDGVTWVPERAV the value was “inactive”; for NKEMIFANYSAGRRYVRYST, “inactive”.

Regarding NKIVNECWHLICSFKLGNLQ, the amyloid nucleation score result is “inactive”. For NKSYNDRARYVARGRDI the value was “inactive”; for NKVFMEDQGLKVHWV, “inactive”.

NKWYSNLQNCCCSLNHTGEG came in with an amyloid nucleation score of 0.624 ± 0.23.

NLAAEASVLVYEDELGCRHG: the amyloid nucleation score result was “inactive”. As for NLAFAVYARTRLKLSPASCV, the entry is “inactive”. As for NLCNWLSCSRTSCNLRLR, the entry is “inactive”; as for NLDIFGNKMLMGRRGMLNMS, “inactive”; as for NLDLGVDLGMQPIGSIKKST, “inactive”. As for NLFLGCQN, the entry is “inactive”; as for NLFLRFIVTLWDRFCPYFYQ, “inactive”. Take NLKILPAVDHCSDHPMERNE: the amyloid nucleation score result was “inactive”.

As for NLKKARSTSFIDEPECRPRP, the amyloid nucleation score is -0.406 ± 1.1. As for NLLDNRIFYHMD, the entry is “inactive”.

Turning to NLLGTVIIFLRDGSS, the amyloid nucleation score stood at 2.13 ± 0.064.

As for NLLYSCVYRHQPLYPAMDFP, the amyloid nucleation score entry was “inactive”.

Regarding NLMEYSAC, the amyloid nucleation score worked out at 0.182 ± 0.28. As for NLMGRCTEFRKYI, the entry is “inactive”. For NLMWL the value was “inactive”; for NLSSCIFVVS, “inactive”; for NLYLSDNVCRVMKASVWVHA, “inactive”. On to NMKSCFHRMDPHWGTGFHSL, for which the amyloid nucleation score result is “inactive”. For NMLMMWCFLVSYNEKMRKTV the value was “inactive”; for NMMAYFVFLGMKANFYMWVW, “inactive”; for NMVISYGVWYCDRKD, 0.84 ± 0.2.

Take NMVYLGDLTITMSTFDAFR: the amyloid nucleation score is 0.53 ± 0.18. For NMYLSMSLIFNTNYLPGMIS the value was “inactive”. In turn, NMYVNTSCIVYFE returned an amyloid nucleation score of 3 ± 0.058. As for NNMVHVVDKFFSLILVMVFS, the entry is “inactive”; as for NNSASNPILFGRYVTASREY, “inactive”; as for NNTDCYESNVVFFSTAIHLS, 1.6 ± 0.12.
